{
  "source": "patent US20230365712A1",
  "target": "Notch4^GFP expressed in transfected Jurkat cells",
  "data": [
    {"substance": "Jagged1 (ligand)", "values": [
      {"measurement": "Notch4-GFP positive cells (%), Jagged1 without mAb", "result": 53.5, "unit": "%"}
    ]}
  ]
}
